The source of these data is article PMC3760615 (The Journal of Cell Biology, 2013).

For this assay, the target named is T1, recombinant His-tagged drebrin ADFH-CC construct (human, UniProt Q16643 1-256).
T1 sequence: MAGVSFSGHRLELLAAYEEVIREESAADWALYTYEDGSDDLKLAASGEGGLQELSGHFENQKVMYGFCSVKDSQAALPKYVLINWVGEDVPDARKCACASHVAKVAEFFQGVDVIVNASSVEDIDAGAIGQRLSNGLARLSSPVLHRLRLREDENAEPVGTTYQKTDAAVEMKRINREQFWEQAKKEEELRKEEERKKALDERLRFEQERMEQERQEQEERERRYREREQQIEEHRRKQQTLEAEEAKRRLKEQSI
Briefly: co-sedimentation.

B1: recombinant His-tagged drebrin BB (blue box) domain (domain or fragment)
chain: VLAAPVEPATADATEIHDAADTIETDTATADTTVANNVPPAATSLIDLWPGNGEGASTLQGEPRAPTPPSGTEVTLAEVPLLDEVAPEPLLPAGEGCATLLNFDELPEPPATFCDPEEVEGESLAAPQTPTLPSALEELEQEQEPEPHLLTNGETTQKEGTQASEGYFSQSQEEEFAQSEELCAKAPPPVFYNKPPEIDITCWDADPVPEEEEGFEGGD
Regarding B1, the binding result is reported as “binds”.
